Tests used:
[1] = molecular target: truncated LysIME-EF1 CBD fragment (8 kDa), product of the internal translation start at M168 (E. faecalis phage); assay: crystal structure; LysIME-EF1 CBD, space group I422, 1.75 Å, one molecule in the asymmetric unit, tetramer by crystallographic symmetry (PDB 6L00)
[2] = molecular target: full-length LysIME-EF1 (wild type), N-terminally 6xHis-tagged (E. faecalis phage); assay: crystal structure; Se-Met WT LysIME-EF1, space group P12(1)1, 1.75 Å, Se-SAD (PDB 6IST)
[3] = molecular target: LysIME-EF1 CBD (residues 168-237) with an N-terminal 6xHis-tag (E. faecalis phage); assay: SEC; single purified CBD proteins; Superdex 200, 20 mM Tris-HCl pH 8.0, 150 mM NaCl, 0.5 ml/min, 16°C

Substance | stoichiometry N [1] | stoichiometry N [2] | stoichiometry N [3]
truncated LysIME-EF1 CBD fragment (8 kDa), product of the internal translation start at M168 (domain or fragment) | 4 | 3 | 
LysIME-EF1 CBD (residues 168-237) with an N-terminal 6xHis-tag (domain or fragment) |  |  | 4

Reference: PMC7098653
